Experimental findings from PMC3597819 (The Journal of Biological Chemistry, 2013) are described below.

The series deals with the molecule itself. The series can be described thus: crystal structure.

B1: KLHL11 BTB-BACK domains (residues 67-340) (domain or fragment, human, UniProt Q9NVR0 67-340, looked up)
chain: EAEDFECSSHCSELSWRQNEQRRQGLFCDITLCFGGAGGREFRAHRSVLAAATEYFTPLLSGQFSESRSGRVEMRKWSSEPGPEPDTVEAVIEYMYTGRIRVSTGSVHEVLELADRFLLIRLKEFCGEFLKKKLHLSNCVAIHSLAHMYTLSQLALKAADMIRRNFHKVIQDEEFYTLPFHLIRDWLSDLEITVDSEEVLFETVLKWVQRNAEERERYFEELFKLLRLSQMKPTYLTRHVKPERLVANNEVCVKLVADAVERHALRAENIQSGT
Take B1: the stoichiometry N – broadly, a count of units in the complex or per binding partner – amounted to 2.
